Measurements from publication PMC6181919, “A cysteine-based molecular code informs collagen C-propeptide assembly” (Nature Communications, 2018).
Residue numbers refer to the chain shown, from its start. In names and notes the source's numbering stands.

Columns and labels:
[1] = molecular target: the molecule itself; experiment: non-reducing SDS-PAGE immunoblot; conditioned media of transfected HEK293 cells, treated with 100 mM iodoacetamide, boiled in SDS, 12% gel, non-reducing; denaturing, shows disulfide-linked species only; two-colour detection of HA and FLAG
[2] = molecular target: the molecule itself; experiment: SEC; size exclusion chromatography in the presence and absence of Ca^2+, compared to wild-type C-Proα1(I)
[3] = molecular target: the molecule itself; experiment: AUC; sedimentation equilibrium, 25 °C, 20 mM Bis-Tris propane pH 7, 150 mM NaCl, with 0.5 mM CaCl2; monomer to trimer
[4] = molecular target: the molecule itself; experiment: AUC; sedimentation equilibrium, 25 °C, 20 mM Bis-Tris propane pH 7, 150 mM NaCl, without Ca^2+; equilibrium constants are of monomer to dimer
[5] = molecular target: the molecule itself; experiment: non-reducing SDS-PAGE immunoblot; cell lysate of transfected HEK293 cells (protein not secreted), non-reducing; denaturing, shows disulfide-linked species only

B1: wild-type, HA-tagged C-Proα1(I) (C-propeptide domain of human Colα1(I)) (domain or fragment)
chain: DDANVVRDRDLEVDTTLKSLSQQIENIRSPEGSRKNPARTCRDLKMCHSDWKSGEYWIDPNQGCNLDAIKVFCNMETGETCVYPTQPSVAQKNWYISKNPKDKRHVWFGESMTDGFQFEYGGQGSDPADVAIQLTFLRLMSTEASQNITYHCKNSVAYMDQQTGNLKKALLLQGSNEIEIRAEGNSRFTYSVTVDGCTSHTGAWGKTVIEYKTTKTSRLPIIDVAPLDVGAPDQEFGFDVGPVCFL
notes: C-propeptide (C-Pro) domain of human procollagen alpha1(I), from the endogenous C-proteinase cleavage site to the C-terminus; Secreted alone it is a disulfide-linked homotrimer; also called wild-type C-Proα1(I); Colα1(I) C-Pro; not shown: HA, N-terminal, kept
stoichiometry N [1]: 3

B2: Asp1277His C-Proα1(I) (domain or fragment, human)
chain: B1 chain with D59H
notes: C-propeptide (C-Pro) domain of human procollagen alpha1(I) with the osteogenesis imperfecta-causing substitution Asp1277His
stoichiometry N [2]: 2

B3: purified C2S (Cys1265Ser) C-Proα1(I), His tag cleaved (domain or fragment, human)
chain: B1 chain with C47S
modifications: glycosylated (a single N-glycosylation site in the polypeptide; site not given)
notes: C-propeptide (C-Pro) domain of human procollagen alpha1(I), from the endogenous C-proteinase cleavage site to the C-terminus; also called C2S C-Proα1(I); source: HEK293 Freestyle, transfected, secreted, purified (Ni-NTA, HRV-3C cleavage, second Ni-NTA, Superdex 200)
stoichiometry N [3]: 3 | Ka [4]: 76300 M⁻¹ | stoichiometry N [4]: 2

B4: purified wild-type C-Proα1(I), His tag cleaved (domain or fragment, human)
chain: B1 chain
modifications: glycosylated (a single N-glycosylation site in the polypeptide; site not given)
notes: C-propeptide (C-Pro) domain of human procollagen alpha1(I), from the endogenous C-proteinase cleavage site to the C-terminus; The HA/FLAG vectors were modified to carry a cleavable 6x-His tag with an HRV-3C site; Interstrand disulfide-linked homotrimer; source: HEK293 Freestyle, transfected, secreted, purified (Ni-NTA, HRV-3C cleavage, second Ni-NTA, Superdex 200)
stoichiometry N [4]: 3

B5: wild-type, HA-tagged C-Proα2(XI) (domain or fragment, human, UniProt P13942 1501-1736, looked up)
chain: IQPLPIQMPKKTRRSVDGSRLMQEDEAIPTGGAPGSPGGLEEIFGSLDSLREEIEQMRRPTGTQDSPARTCQDLKLCHPELPDGEYWVDPNQGCARDAFRVFCNFTAGGETCVTPRDDVTQFSYVDSEGSPVGVVQLTFLRLLSVSAHQDVSYPCSGAARDGPLRLRGANEDELSPETSPYVKEFRDGCQTQQGRTVLEVRTPVLEQLPVLDASFSDLGAPPRRGGVLLGPVCFMG
notes: C-propeptide (C-Pro) domain of human procollagen alpha2(XI); gene bought from Genewiz; source: HEK293, transfected, not secreted, in cell lysate; not shown: HA, N-terminal, kept
stoichiometry N [5]: 3
